B1: short-form Klotho (Skl): Skl3N (protein)
parent chain: MLARAPPRRPPRLVLLRLLLLHLLLLALRARCLSAEPGQGAQTWARFARAPAPEAAGLLHDTFPDGFLWAVGSAAYQTEGGWRQHGKGASIWDTFTHHSGAAPSDSPIVVAPSGAPSPPLSSTGDVASDSYNNVYRDTEGLRELGVTHYRFSISWARVLPNGTAGTPNREGLRYYRRLLERLRELGVQPVVTLYHWDLPQRLQDTYGGWANRALADHFRDYAELCFRHFGGQVKYWITIDNPYVVAWHGYATGRLAPGVRGSSRLGYLVAHNLLLAHAKVWHLYNTSFRPTQGGRVSIALSSHWINPRRMTDYNIRECQKSLDFVLGWFAKPIFIDGDYPESMKNNLSSLLPDFTESEKRLIRGTADFFALSFGPTLSFQLLDPNMKFRQLESPNLRQLLSWIDLEYNHPPIFIVENGWFVSGTTKRDDAKYMYYLKKFIMETLKAIRLDGVDVIGYTAWSLMDGFEWHRGYSIRRGLFYVDFLSQDKELLPKSSALFYQKLIEDNGFPPLPENQPLEGTFPCDFAWGVVDNYVQVSPLTKPSVGLLLPH
B2: short-form Klotho (Skl): SklN285A (protein)
parent chain: B1 parent chain

Key:
[1] = DHE staining, flow cytometry, HEK293; conditions: glycan lost; control: Skl (wild type)
[2] = GSH/GSSG-Glo luminescence assay; conditions: glycan lost; control: Skl (wild type)

| Protein | other: antioxidant activity (lowering of intracellular O2-) [1] | other: antioxidant activity (raising of GSH/GSSG ratio) [2] |
| --- | --- | --- |
| B1 | decreases | abolishes |
| B2 | – | abolishes |

From PMC5687603
